From patent publication US20230250461A1

Columns and labels:
[1] = biological target: IvaP from Vibrio cholerae, the alkaline serine protease corresponding to the gene VC 0157 (purified) (Vibrio cholerae); test: solvatochromic dye fluorescence, multi-well plate reader; probe 3 µM, IvaP 1 µM preincubated with PMSF (FIG. 9B)
[2] = biological target: IvaP from Vibrio cholerae, the alkaline serine protease corresponding to the gene VC 0157 (purified) (Vibrio cholerae); test: solvatochromic dye fluorescence, plate reader; I9-dye conjugate 3 µM, IvaP 1 µM (FIG. 7A)
[3] = biological target: IvaP from Vibrio cholerae, the alkaline serine protease corresponding to the gene VC 0157 (purified) (Vibrio cholerae); test: cell-based or functional assay

Row | Substance | increase in fluorescence intensity [1] [fold] | relative fluorescence change (Fbound/Funbound) [2] [fold] | decrease in fluorescence intensity [3] [fold]
1 | I9 I128C-IANBD conjugate (peptide) | 2 | 2 | –
2 | I9 E123C-MDCC conjugate (peptide) | – | – | 4
